Source: patent publication US20210179728A1 (OSE IMMUNOTHERAPEUTICS, published 2021)
Values belong to the binder of their own block, whether it stands above or below them.

Legend:
[1] = target: T1, recombinant hSIRPg-His (Sino Biologicals, reference 11828-H08H) (human, UniProt Q9P1W8 29-360); experiment: Blitz, SIRPg-His on Ni-NTA biosensor
T1 construct: also called human SIRPg-His; not shown: His tag
Method: (§1) Method: This method was performed with a Blitz (Forte Bio; USA; reference C22-2 No 61010-1). Recombinant hSIRPg-His (Sino Biologicals, Beijing, China; reference 11828-H08H) was immobilized at 10 μg/ml by histidine tail into a Ni-NTA biosensor (Forte Bio; USA; reference 18-0029) for 30 seconds. Then, an anti-SIRPa antibody was associated at 20 μg/mL for 120 seconds. The dissociation of anti-SIRPa antibody was made in kinetics buffer for 120 seconds. Analysis of data was made with the Blitz pro 1.2 software, which calculated association constant (ka) and dissociation constant (kd) and determined the affinity constant KD […].

[2] = target: T2, recombinant hSIRPa (Sino Biologicals, reference 11612-H08H) (human, UniProt P78324 31-370); experiment: ELISA on immobilized hSIRPa-His, anti-human IgG detection, first experiment; first experiment
T2 construct: also called SIRPa-His; human SIRPa-His; not shown: His tag (histidine tail)
Method: Method: The binding activity of the anti-SIRPa antibodies was assessed by ELISA.

[3] = target: T3, recombinant hSIRPb-His (Antibodies-online, reference ABIN3077231) (human, UniProt Q5TFQ8 30-371); experiment: BLI (Blitz); SIRPb-His on Ni-NTA biosensor, antibody at 20 ug/ml [B, table A]
T3 construct: also called SIRPb-His (Blitz); not shown: His tag
Method: FIG. 7. (A) Affinity analysis by Blitz of anti-SIRP antibodies on human SIRPb recombinant protein. SIRPb-His recombinant protein was immobilized onto a NINTA biosensor and the indicated antibodies were added at 20 μg/ml. […] (B) Binding analysis of anti-SIRP antibodies (human SIRPb-His coating and anti-human kappa detection).
as §1, with “hSIRPb-His (Antibodies-online; USA;” for “hSIRPg-His (Sino Biologicals, Beijing, China;”, “ABIN3077231)” for “11828-H08H)”

[4] = target: T2, recombinant hSIRPa (Sino Biologicals, …); experiment: SPR (Biacore); SIRPa-His immobilized on CM5 chip, antibody injected
How it was run: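 His-tagged recombinant human SIRPa was coupled to a CM5 chip at 5 μg/ml (500 RU). Anti-SIRP antibodies were injected at several concentrations at 40 μl/min on a BIAcore 3000.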

[5] = target: T2, recombinant hSIRPa (Sino Biologicals, …); experiment: competition ELISA on immobilized SIRPa-His; competitor biotinylated CD47-Fc at 6 ug/ml, streptavidin-peroxidase [second experiment table]
Method: Method: For competitive ELISA assay, recombinant hSIRPa (Sino Biologicals, Beijing, China; reference 11612-H08H) was immobilized on plastic at 0.5 μg/ml in carbonate buffer (pH9.2).

[6] = target: T1, recombinant hSIRPg-His (Sino …); experiment: BLI (Blitz); SIRPg-His on Ni-NTA biosensor, antibody at 10 ug/ml or 20 ug/ml (Example 9) [B, table A]
Method: FIG. 8. (A) Affinity analysis by Blitz of anti-SIRP antibodies on human SIRPg recombinant protein. SIRPg-His recombinant protein was immobilized onto a NINTA biosensor and the indicated antibodies were added at 10 μg/ml. […] (B) Binding analysis by ELISA assay of anti-SIRP antibodies on SIRPg (human SIRPg-His coating and anti-human kappa detection).
as §1

[7] = target: T2, recombinant hSIRPa (Sino Biologicals, …); experiment: ELISA on immobilized hSIRPa-His, anti-human IgG detection

T1 sequence (Q9P1W8 29-360 limits assumed): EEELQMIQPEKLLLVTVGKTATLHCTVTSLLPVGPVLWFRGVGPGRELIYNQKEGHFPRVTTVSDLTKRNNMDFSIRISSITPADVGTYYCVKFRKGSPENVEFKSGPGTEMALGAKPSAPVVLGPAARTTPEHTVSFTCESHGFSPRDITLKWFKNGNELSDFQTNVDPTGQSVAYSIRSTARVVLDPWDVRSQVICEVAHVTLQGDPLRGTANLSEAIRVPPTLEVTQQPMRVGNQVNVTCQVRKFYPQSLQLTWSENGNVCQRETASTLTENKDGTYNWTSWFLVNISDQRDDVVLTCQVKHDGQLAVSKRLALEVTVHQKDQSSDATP
T3 sequence (Q5TFQ8 30-371): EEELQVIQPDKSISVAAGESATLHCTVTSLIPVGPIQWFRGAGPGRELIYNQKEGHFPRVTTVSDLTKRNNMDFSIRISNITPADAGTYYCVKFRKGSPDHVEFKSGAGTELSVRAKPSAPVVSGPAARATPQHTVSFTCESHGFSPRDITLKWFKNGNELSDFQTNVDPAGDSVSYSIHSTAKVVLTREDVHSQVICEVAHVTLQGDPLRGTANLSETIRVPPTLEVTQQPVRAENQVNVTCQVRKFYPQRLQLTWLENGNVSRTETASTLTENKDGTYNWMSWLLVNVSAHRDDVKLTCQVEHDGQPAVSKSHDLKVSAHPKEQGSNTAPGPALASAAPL
T2 sequence (P78324 31-370 limits assumed): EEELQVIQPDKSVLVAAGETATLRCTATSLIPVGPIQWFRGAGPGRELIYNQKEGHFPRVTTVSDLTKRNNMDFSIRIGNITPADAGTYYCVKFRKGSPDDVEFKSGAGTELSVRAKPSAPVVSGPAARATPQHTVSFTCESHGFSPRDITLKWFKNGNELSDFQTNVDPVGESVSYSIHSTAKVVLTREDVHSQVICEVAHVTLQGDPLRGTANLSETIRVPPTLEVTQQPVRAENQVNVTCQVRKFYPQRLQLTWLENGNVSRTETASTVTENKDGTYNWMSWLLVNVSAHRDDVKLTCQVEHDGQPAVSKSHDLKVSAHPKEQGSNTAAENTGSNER

Kd [1]: 104 nM | EC50 [2]: 4 ng/mL | Kd [3]: 26 nM | koff [3]: 0.00174 s⁻¹ | kon [3]: 66900 M⁻¹ s⁻¹ | Kd [4]: 0.315 nM | koff [4]: 0.000249 s⁻¹ | kon [4]: 791000 M⁻¹ s⁻¹ | IC50 [5]: 183 ng/mL | koff [6]: 0.0123 s⁻¹ | kon [6]: 119000 M⁻¹ s⁻¹
B1: HFLB (antibody, human IgG4 S228P, kappa, V domains shown)
VH: EVQLVQSGAEVKKPGESLRISCKASGYSFTSYWVHWVRQMPGKGLEWMGNIDPSDSDTHYSPSFQGHVTLSVDKSISTAYLQLSSLKASDTAMYYCVRGGTGTMAYFAYWGQGTLVTVSS
VL: DVVMTQSPLSLPVTLGQPASISCRSSQSLVHSYGNTYLYWFQQRPGQSPRLLIYRVSNRFSGVPDRFSGSGSGTDFTLKISRVEAEDVGVYYCFQGTHVPYTFGGGTKVEIKR
notes: humanized 18D5 variant

EC50 [7]: 3.3 ng/mL | Kd [3]: 2.77 nM | koff [3]: 0.000794 s⁻¹ | kon [3]: 286000 M⁻¹ s⁻¹ | Kd [4]: 0.367 nM | koff [4]: 8.95e-05 s⁻¹ | kon [4]: 244000 M⁻¹ s⁻¹ | Kd [6]: 2.14 nM | koff [6]: 0.000765 s⁻¹ | kon [6]: 357000 M⁻¹ s⁻¹
B2: Kwar23 (antibody, V domains shown)
VH: EVQLQQSGAELVKPGASVKLSCTASGFNIKDYYIHWVQQRTEQGLEWIGRIDPEDGETKYAPKFQDKATITADTSSNTAYLHLSSLTSEDTAVYYCARWGAYWGQGTLVTVSS
VL: QIVLTQSPAIMSASPGEKVTLTCSASSSVSSSYLYWYQQKPGSSPKLWIYSTSNLASGVPARFSGSGSGTSYSLTISSMEAEDAASYFCHQWSSYPRTFGAGTKLELK
